The values below come from article PMC6048764, “Myricetin antagonizes semen-derived enhancer of viral infection (SEVI) formation and influences its infection-enhancing activity” (Retrovirology, 2018).

To fix the notation:
B1: SEM1_(86–107) (peptide, UniProt P04279 86-107, looked up)
peptide: DLNALHKTTKSQRHLGGSQQLL
notes: source: synthetic peptide (Scilight Biotechnology LLC, Beijing)
B2: SEM2_(86–107) (peptide, UniProt Q02383 86-107, looked up)
peptide: DLNALHKATKSKQHLGGSQQLL
notes: as for B1

The data set deals with the molecule itself. Briefly: thioflavin T fluorescence; amyloid fibril formation; peptide 3 mg/ml agitated at 1400 rpm at 37 °C for 48 h, without myricetin.
As to RLAGGVLVNEILNHMKR (peptide, UniProt P15309 257-273, looked up, source: synthetic peptide) [PAP257–273 GIn259A], the binding result was “binds”.

As to RAQGGVLVNEILNHMKR (peptide, UniProt P15309 257-273, looked up, source: synthetic peptide) [PAP257–273 Leu258A], the binding result is given as “binds”.

As for RLQGGVLVNEIANHMKR (peptide, UniProt P15309 257-273, looked up, source: synthetic peptide) [PAP257–273 Leu268A], the binding result was “binds”.

As for B1, the binding result is listed as “binds”.

Turning to RLQGGVLVNEILNHMKA (peptide, UniProt P15309 257-273, looked up, source: synthetic peptide) [PAP257–273 Arg273A], the binding result is listed as “binds”.

As for B2, the binding result is on record as “binds”.
